The results in this text go back to IntAct's records for PubMed 23612611.

Sequences and labels used below:
B1: E3 ubiquitin-protein ligase CHIP (Mus musculus), Q9WUD1 (parent)
chain: MKGKEEKEGGARLGTGGGGSPDKSPSAQELKEQGNRLFVGRKYPEAAACYGRAITRNPLVAVYYTNRALCYLKMQQPEQALADCRRALELDGQSVKAHFFLGQCQLEMESYDEAIANLQRAYSLAKEQRLNFGDDIPSALRIAKKKRWNSIEERRIHQESELHSYLTRLIAAERERELEECQRNHEGHEDDGHIRAQQACIEAKHDKYMADMDELFSQVDEKRKKRDIPDYLCGKISFELMREPCITPSGITYDRKDIEEHLQRVGHFDPVTRSPLTQEQLIPNLAMKEVIDAFISENGWVEDY
partner: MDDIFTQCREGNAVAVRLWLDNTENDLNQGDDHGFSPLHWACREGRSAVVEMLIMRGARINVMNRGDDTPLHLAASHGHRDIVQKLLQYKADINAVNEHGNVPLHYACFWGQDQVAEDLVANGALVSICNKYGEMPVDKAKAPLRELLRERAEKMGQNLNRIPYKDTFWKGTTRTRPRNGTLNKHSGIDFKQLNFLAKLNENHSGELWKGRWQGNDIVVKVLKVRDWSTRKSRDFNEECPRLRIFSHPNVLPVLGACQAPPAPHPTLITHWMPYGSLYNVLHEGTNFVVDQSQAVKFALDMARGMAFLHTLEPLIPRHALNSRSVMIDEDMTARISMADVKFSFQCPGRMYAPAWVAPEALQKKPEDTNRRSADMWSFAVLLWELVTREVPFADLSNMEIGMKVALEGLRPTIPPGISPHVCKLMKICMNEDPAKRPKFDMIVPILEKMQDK

Variants of B1 are the subject of the assay. As to conditions: with ilk_mouse Ilk.
On to K31A, for which the “effect of a mutation on the interaction” value is reported as “decreasing interaction”.
